Experimental data as given in IntAct's records for PubMed 19850040.

B1: Post-transcriptional regulator MTA (Human herpesvirus 8), Q2HR75 (parent)
chain: MVQAMIDMDIMKGILEDSVSSSEFDESRDDETDAPTLEDEQLSEPAEPPADERIRGTQSAQGIPPPLGRIPKKSQGRSQLRSEIQFCSPLSRPRSPSPVNRYGKKIKFGTAGQNTRPPPEKRPRRRPRDRLQYGRTTRGGQCRAAPKRATRRPQVNCQRQDDDVRQGVSDAVKKLRLPASMIIDGESPRFDDSIIPRHHGACFNVFIPAPPSHVPEVFTDRDITALIRAGGKDDELINKKISAKKIDHLHRQMLSFVTSRHNQAYWVSCRRETAAAGGLQTLGAFVEEQMTWAQTVVRHGGWFDEKDIDIILDTAIFVCNAFVTRFRLLHLSCVFDKQSELALIKQVAYLVAMGNRLVEACNLLGEVKLNFRGGLLLAFVLTIPGMQSRRSISARGQELFRTLLEYYRPGDVMGLLNVIVMEHHSLCRNSECAAATRAAMGSAKFNKGLFFYPLS

Variants of: B1
Conditions: with thoc4_human ALYREF

| Variant | effect of a mutation on the interaction |
| --- | --- |
| K121M | disrupting interaction |
| R122S | disrupting interaction |
| R124Q | disrupting interaction |
| R125G | disrupting interaction |
| R126E | disrupting interaction |
| R128S | disrupting interaction |
| R130G | disrupting interaction |
| R143D | disrupting interaction |
| K147E | disrupting interaction |
| R148Q | disrupting interaction |
| R151D | disrupting interaction |
| R152G | disrupting interaction |

Variants of: B1
Conditions: with thoc4_human ALYREF
Remark: another data set of the same source

| Variant | effect of a mutation on the interaction |
| --- | --- |
| R101S | disrupting interaction |
| K104N | disrupting interaction |
| K105N | disrupting interaction |
| K107E | disrupting interaction |
